Source: patent EP2096121A1 (Institut Pasteur Of Shanghai, dated 2009)

Columns and labels:
[1] = target: HIV-1 envelope pDOL (subtype B) (HIV-1 (subtype B)); test: cell-based or functional assay
[2] = target: HIV-1 envelope Q168 (subtype A) (HIV-1 (subtype A)); test: cell-based or functional assay

B1: GPI-scFv (TG15): scFv/hinge/his-tag/DAF, anti-HIV-1 gp41 single-chain Fv derived from human monoclonal antibody TG15, GPI-anchored (scFv)
scFv: QVQLQQWGAGLLKPSETLSLTCAVYGDSFGGHHWSWIRQPPGKGLEWIGEINFLGNTNYNPSLKSRVAISKDTSKNQFSLTLNSATAADTAVYFCARRETMETASRKRAFDIWGQGTMETVTVSAGGGGSGGGGSGGGGSAELMETTQSPPTLSASVGDRVTITCRASQSLSGWVAWYQQKPGKAPKLLIYKASTLESGVPSRFSGSGSGTVFALTISSLQPDDSATYYCQQHSAFSSTFGQGTKLEIKRTPLGDTTHTSGHHHHHHGSGTTSGTTRLLSGHTCFTLTGLLGTLVTMETGLLT
[1]
  relative luciferase activity (RLA), single-cycle pseudotype infectivity, CEMss-GPI-scFv compared to CEMss-eGFP: 8 fold reduction
[2]
  relative luciferase activity (RLA), single-cycle pseudotype infectivity, CEMss-GPI-scFv compared to CEMss-eGFP: 180 fold reduction
